The values that follow come from publication PMC12990809.

Experiment in all cases: pulldown
For data set [1], the target named is T1, NCU00556 (Neurospora crassa) (UniProt Q7SF93).
T1 sequence: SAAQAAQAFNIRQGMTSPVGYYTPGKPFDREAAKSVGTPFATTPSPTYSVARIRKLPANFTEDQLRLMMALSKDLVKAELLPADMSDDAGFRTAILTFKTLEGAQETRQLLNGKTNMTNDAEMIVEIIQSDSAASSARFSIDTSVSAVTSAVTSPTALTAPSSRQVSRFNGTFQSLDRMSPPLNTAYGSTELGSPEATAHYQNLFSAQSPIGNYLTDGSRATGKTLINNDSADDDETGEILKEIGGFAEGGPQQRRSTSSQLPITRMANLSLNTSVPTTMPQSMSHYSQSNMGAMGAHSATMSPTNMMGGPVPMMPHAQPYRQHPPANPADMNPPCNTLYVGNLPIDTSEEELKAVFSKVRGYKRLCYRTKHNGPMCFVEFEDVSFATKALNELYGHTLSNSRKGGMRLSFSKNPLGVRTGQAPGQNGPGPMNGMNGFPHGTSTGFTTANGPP
The following applies: 20 nM protein, 1.5 uM RNA pool; 20 mM HEPES pH 7.8, 70 mM KCl, 10 mM NaCl, 10% glycerol, 2 mM DTT, 0.1 ug/uL BSA; 30 min, 4 C.

Data set [2] concerns the target T2, Tb11.01.5690 S174N (Trypanosoma brucei) (UniProt Q382C7).
T2 sequence: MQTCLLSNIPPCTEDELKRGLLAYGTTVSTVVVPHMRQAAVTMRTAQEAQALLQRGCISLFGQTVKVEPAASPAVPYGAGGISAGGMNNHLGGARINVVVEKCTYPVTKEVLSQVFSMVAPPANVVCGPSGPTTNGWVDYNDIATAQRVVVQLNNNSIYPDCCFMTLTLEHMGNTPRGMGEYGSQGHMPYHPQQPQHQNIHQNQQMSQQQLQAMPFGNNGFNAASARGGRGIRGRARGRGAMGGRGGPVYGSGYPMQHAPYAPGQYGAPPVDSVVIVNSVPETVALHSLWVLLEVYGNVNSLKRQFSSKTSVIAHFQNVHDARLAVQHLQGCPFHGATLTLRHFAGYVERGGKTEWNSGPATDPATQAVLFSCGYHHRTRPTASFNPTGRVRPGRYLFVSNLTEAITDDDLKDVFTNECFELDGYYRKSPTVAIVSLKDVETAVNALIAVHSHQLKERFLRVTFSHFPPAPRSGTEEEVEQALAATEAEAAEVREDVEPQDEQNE
The note with it: 20 nM protein, 1.5 uM RNA pool; 20 mM HEPES pH 7.8, 70 mM KCl, 10 mM NaCl, 10% glycerol, 2 mM DTT, 0.1 ug/uL BSA; 30 min, 4 C.

The target in data set [3] is T3, LmjF.30.1110 (Leishmania major) (UniProt Q4Q7J2).
T3 sequence: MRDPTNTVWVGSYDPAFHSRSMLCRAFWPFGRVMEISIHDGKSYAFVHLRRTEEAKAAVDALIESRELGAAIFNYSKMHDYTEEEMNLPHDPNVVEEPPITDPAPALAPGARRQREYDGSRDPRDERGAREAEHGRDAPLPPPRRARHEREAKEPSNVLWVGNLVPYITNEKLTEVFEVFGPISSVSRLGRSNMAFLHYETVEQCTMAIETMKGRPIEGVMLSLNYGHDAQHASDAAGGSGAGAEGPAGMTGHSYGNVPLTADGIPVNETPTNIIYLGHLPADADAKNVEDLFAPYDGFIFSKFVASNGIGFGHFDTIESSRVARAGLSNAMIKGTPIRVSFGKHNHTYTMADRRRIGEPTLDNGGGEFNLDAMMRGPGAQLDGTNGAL
The following applies: 20 nM protein, 1.5 uM RNA pool; 20 mM HEPES pH 7.8, 70 mM KCl, 10 mM NaCl, 10% glycerol, 2 mM DTT, 0.1 ug/uL BSA; 30 min, 4 C.

For a further data set, the target named is T4, KHDRBS3 (Homo sapiens) (UniProt O75525).
T4 sequence: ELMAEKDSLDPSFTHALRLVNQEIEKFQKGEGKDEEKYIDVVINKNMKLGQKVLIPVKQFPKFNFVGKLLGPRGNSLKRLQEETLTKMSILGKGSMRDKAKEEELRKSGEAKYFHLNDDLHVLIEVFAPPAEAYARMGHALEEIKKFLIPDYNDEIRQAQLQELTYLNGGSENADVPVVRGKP
The following applies: 20 nM protein, 1.5 uM RNA pool; 20 mM HEPES pH 7.8, 70 mM KCl, 10 mM NaCl, 10% glycerol, 2 mM DTT, 0.1 ug/uL BSA; 30 min, 4 C (protocol of this paper; not …); cited from earlier work.

Another data set has as its target DDX53 (Homo sapiens) (UniProt Q86TM3). The following applies: 20 nM protein, 1.5 uM RNA pool; 20 mM HEPES pH 7.8, 70 mM KCl, 10 mM NaCl, 10% glycerol, 2 mM DTT, 0.1 ug/uL BSA; 30 min, 4 C.
Data set [4] has as its target T5, Tb11.03.0550 L37P (Trypanosoma brucei) (UniProt Q387J8).
T5 sequence: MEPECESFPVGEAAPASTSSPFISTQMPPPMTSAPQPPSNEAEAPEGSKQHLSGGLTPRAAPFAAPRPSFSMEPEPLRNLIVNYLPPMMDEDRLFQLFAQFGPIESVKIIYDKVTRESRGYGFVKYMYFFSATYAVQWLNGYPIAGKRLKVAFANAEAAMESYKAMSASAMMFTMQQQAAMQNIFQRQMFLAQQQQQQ
The note with it: 20 nM protein, 1.5 uM RNA pool; 20 mM HEPES pH 7.8, 70 mM KCl, 10 mM NaCl, 10% glycerol, 2 mM DTT, 0.1 ug/uL BSA; 30 min, 4 C.

Data set [5] concerns the target T6, LmjF.29.1370 (Leishmania major) (UniProt E9ADZ6).
T6 sequence: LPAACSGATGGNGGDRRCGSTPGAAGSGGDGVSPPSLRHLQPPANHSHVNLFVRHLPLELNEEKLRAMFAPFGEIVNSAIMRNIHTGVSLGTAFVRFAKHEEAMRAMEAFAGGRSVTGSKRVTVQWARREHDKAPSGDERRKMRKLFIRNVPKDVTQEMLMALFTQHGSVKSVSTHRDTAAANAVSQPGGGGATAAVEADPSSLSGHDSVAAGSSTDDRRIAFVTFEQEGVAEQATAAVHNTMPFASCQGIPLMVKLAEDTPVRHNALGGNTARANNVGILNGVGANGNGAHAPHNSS
The following applies: 20 nM protein, 1.5 uM RNA pool; 20 mM HEPES pH 7.8, 70 mM KCl, 10 mM NaCl, 10% glycerol, 2 mM DTT, 0.1 ug/uL BSA; 30 min, 4 C.

Data set [6] has as its target T7, NCU00707 (Neurospora crassa) (UniProt Q7SET9).
T7 sequence: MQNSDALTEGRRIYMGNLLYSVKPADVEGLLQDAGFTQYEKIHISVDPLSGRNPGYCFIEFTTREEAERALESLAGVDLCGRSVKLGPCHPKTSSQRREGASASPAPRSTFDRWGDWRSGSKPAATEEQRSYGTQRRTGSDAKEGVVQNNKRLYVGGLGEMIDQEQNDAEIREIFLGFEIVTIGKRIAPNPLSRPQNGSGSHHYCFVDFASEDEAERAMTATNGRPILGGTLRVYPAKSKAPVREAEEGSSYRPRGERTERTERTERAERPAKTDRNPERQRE
The note with it: 20 nM protein, 1.5 uM RNA pool; 20 mM HEPES pH 7.8, 70 mM KCl, 10 mM NaCl, 10% glycerol, 2 mM DTT, 0.1 ug/uL BSA; 30 min, 4 C.

Data set [7] concerns the target T8, Tb10.389.1650 (Trypanosoma brucei) (UniProt Q389D4).
T8 sequence: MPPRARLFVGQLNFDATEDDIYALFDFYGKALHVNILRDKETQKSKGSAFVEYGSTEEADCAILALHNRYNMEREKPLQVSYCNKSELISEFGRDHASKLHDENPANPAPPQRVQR
The following applies: 20 nM protein, 1.5 uM RNA pool; 20 mM HEPES pH 7.8, 70 mM KCl, 10 mM NaCl, 10% glycerol, 2 mM DTT, 0.1 ug/uL BSA; 30 min, 4 C.

DDX53 (Homo sapiens), sequence (Q86TM3 whole entry): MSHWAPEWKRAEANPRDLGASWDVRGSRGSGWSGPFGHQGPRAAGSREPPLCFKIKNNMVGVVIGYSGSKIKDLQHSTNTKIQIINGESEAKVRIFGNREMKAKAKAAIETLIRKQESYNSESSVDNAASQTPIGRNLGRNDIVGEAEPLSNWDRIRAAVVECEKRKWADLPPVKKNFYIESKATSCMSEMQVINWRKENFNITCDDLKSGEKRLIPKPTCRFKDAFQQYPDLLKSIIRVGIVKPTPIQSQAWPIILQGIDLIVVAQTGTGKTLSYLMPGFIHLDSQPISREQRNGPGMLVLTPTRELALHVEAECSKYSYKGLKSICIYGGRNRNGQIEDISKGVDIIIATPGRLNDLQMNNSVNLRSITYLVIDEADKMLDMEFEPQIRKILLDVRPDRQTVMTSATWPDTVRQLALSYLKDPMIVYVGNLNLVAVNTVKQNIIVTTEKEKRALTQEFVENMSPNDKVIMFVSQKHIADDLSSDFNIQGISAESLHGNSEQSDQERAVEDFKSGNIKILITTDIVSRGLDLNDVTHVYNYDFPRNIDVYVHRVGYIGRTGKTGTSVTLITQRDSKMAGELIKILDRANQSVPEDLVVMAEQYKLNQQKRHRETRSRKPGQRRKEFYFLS

UUGCAU [RNAcompete motif RNCMPT00754]: the binding signal (z-score (mean of top ten 7-mers)) in data set [1] stood at 14.3.

In the case of GAAAGAAA [RNAcompete motif RNCMPT00773], in [2], the binding signal (z-score (mean of top ten 7-mers)) was 9.18.

Sequence AUGAUG [RNAcompete motif RNCMPT00763] showed a binding signal (z-score (mean of top ten 7-mers)) in data set [3] of 10.7.

Turning to GAUAAAC [RNAcompete motif RNCMPT00034], the binding signal (z-score (mean of top ten 7-mers)) with KHDRBS3 (Homo sapiens) is 9.52.

The sequence AGAAUAA [RNAcompete motif RNCMPT00743] showed a binding signal (z-score (mean of top ten 7-mers)) with DDX53 (Homo sapiens) of 6.26.

Sequence UUAUUUU [RNAcompete motif RNCMPT00749] yielded a binding signal (z-score (mean of top ten 7-mers)) in [4] of 13.9.

In data set [5], CAUAGU [RNAcompete motif RNCMPT00762] showed a binding signal (z-score (mean of top ten 7-mers)) of 29.8.

With UUAUGA [RNAcompete motif RNCMPT00768], the binding signal (z-score (mean of top ten 7-mers)) in [6] was determined as 7.83.

With UUUGCU [RNAcompete motif RNCMPT00732], the binding signal (z-score (mean of top ten 7-mers)) in [7] was 18.9.
